# According to patent US20240285753A1 (DUKE UNIVERSITY, published 2024):
# T1: S2hlx-Ex6
# T1 construct: backbone grafting design
# T1 chain: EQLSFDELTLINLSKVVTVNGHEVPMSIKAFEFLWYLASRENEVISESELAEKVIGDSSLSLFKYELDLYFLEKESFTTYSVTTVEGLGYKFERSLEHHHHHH
# Key:
# S2hlx-Ex6 = molecular target: T1, S2hlx-Ex6; test: ELISA, coated antigen, mAb titrated
# [1] = molecular target: T2, SARS-CoV-2 D614G spike on infected cells (SARS-CoV-2, UniProt P0DTC2 14-1273); test: flow cytometry, infected cells, % infected cells bound
# T2 construct: whole, on cells
# [2] = molecular target: T2, SARS-CoV-2 D614G spike on infected cells; test: flow cytometry on infected Vero E6 cells
Binder,binding result [2],other results
"S2P6 mAb (antibody, V domains shown) VH: EVQLVQSGAEVKKPGASVKVSCKASGYTFTSQYMHWVRQAPGQGLEWIGIINPSGVHTSYAQKFQGRVTLTRDTSTSTLYMELSSLRSEDTAVYYCARGSPKGAFDYWGQGTLVTVSS VL: not shown",–,EC50 (read off the curve) (S2hlx-Ex6): ~0.1 µg/mL
"DH1498 (antibody, V domains shown) VH: QVQLQESGPGLVKPSETLSLTCAVSGGSVSSDTYYWSWIRQPPGKGLEWIGYIYNSGSTNYNPSLKSRVTISVDTSKSQFSLNLGSVTAADTAVYYCAREGAGTYPPKNDAFDIWGQGTLVTVSS VL: not shown",–,binding result [1]: no binding (tested: 50 µg/mL)
"DH1501.1 (antibody, V domains shown) VH: EVQLVESGAEVKKPGASVRVSCKASGFTFTDHYMHWVRQAPGQGLEWMGLINPTGVNTFYAQNFRGRVTMTRDTSTKTDYLEVRSLTSQDTAMYYCARMSRYGAFDIWGQGTMVTVSL VL: EIVLTQSPGTLSLSPGERATLSCRASQSVGSGYLAWYQQKPGQAPRLLIYGASVRATGIPDRFSGSGSGTDFSLTINRVEPEDFAMYYCQNYGSSPPRYTFGQGTKLEIK",binds,–
"DH1501.2 (antibody, V domains shown) VH: EVQLVESGAEVKKPGASVRLSCKASGDTFNNKYVHWVRQAPGQGLEWMGLINPSGSGTAFAQKFQGRVSMTRDTSTRTVYLGLTSLTYEDTAVYYCARMSRAGTFDIWDQGTMVTVSS VL: EIVLTQSPGTLSLSPGDRATLSCRASENVGTSYLAWYQQKPGQAPRLLISGTSSRATGVPDRFSGSGSGRDFTLTISRLEPEDFAVYYCQQYGSSPPRYTFGQGTKLDMK",binds,–
